B1: RA475 (nucleic acid)
DNA: GCGCGTCCTGGATTCGCGGAAACGCGTACATCCAGCTGACGAGTCCCAAATAGGACGAAACGCGAGAATACCAGCATCGTCTTGATGCCCTTGGAAGTCTCGC
modifications: chemistry not given here
B2: RA472 (nucleic acid)
DNA: GCGCGTCCTGGATTCGCGGAAACGCGTACATCCAGCTGACGAGTCCCAAATAGAGAATACCAGCATCGTCTTGATGCCCTTGGAAGTCTCGGACGAAACGCGC
modifications: expressed or natural sequence
B3: RA468 (nucleic acid)
DNA: GCGCGTCCTGGATTCGCGGAAACGCGTACATCCAGCCGAGAATACCAGCATCGTCTTGATGCCCTTGGAAGTCTCGTGACGAGTCCCAAATAGGACGAAACGCGC
modifications: expressed or natural sequence; listed as DNA, chemistry not fully specified
B4: RA054 (nucleic acid)
DNA: GAGTGATACCAGCATCGTCTTGATGCCCTTGGCAGCACTCGCGTCCTGGATTCGCGGAAACGCGTACATCCAGCTGACGAGTCCCAAATAGGACGAAACGCGC
modifications: expressed or natural sequence
B5: RA049 (nucleic acid)
DNA: GCGCGTCCTGGATTCGCGGAAACGCGTACATAGAATACCAGCATCGTCTTGATGCCCTTGGAAGTCTCCAGCTGACGAGTCCCAAATAGGACGAAACGCGC
modifications: expressed or natural sequence
B6: RA004: exemplary aptazyme of the T3H48 aptazyme variant library (nucleic acid)
DNA: GCGCGTCCTGGATTCGCGGAAACGCGTACATCCAGCTGACGAGTCCCAAATAGGCCGGAATACCAGCATCGTCTTGATGCCCTTGGAAGTCCGGACGAAACGCGC
modifications: expressed or natural sequence
notes: exemplary aptazyme of the T3H48 aptazyme variant library
B7: RA476 (nucleic acid)
DNA: GCGCGTCCTGGATTCGCGGAAACGCGTACATCCAGCTGACGAGTCCCAAATAGGACGAAAAGAATACCAGCATCGTCTTGATGCCCTTGGAAGTCTCGCGC
modifications: expressed or natural sequence
B8: RA471 (nucleic acid)
DNA: GCGCGTCCTGGATTCGCGGAAACGCGTACATCCAGCTGACGAGTCCCAAATAGGACCGAGAATACCAGCATCGTCTTGATGCCCTTGGAAGTCTCGGAAACGCGC
modifications: expressed or natural sequence
B9: RA048 (nucleic acid)
DNA: GCGCGTCCTGGATTCGCGGAAACGCGTACATCCAGCTGACGCGAGAATACCAGCATCGTCTTGATGCCCTTGGAAGTCTCGAGTCCCAAATAGGACGAAACGCGC
modifications: expressed or natural sequence
B10: RA053 (nucleic acid)
DNA: GCGCGTCCTGGATTCGCGGAAACGCGTACATCCAGAGTGATACCAGCATCGTCTTGATGCCCTTGGCAGCACTCTGACGAGTCCCAAATAGGACGAAACGCGC
modifications: expressed or natural sequence
B11: RA051 (nucleic acid)
DNA: GCGCGTCCTGGATTCGCGGAAACGCGTACATCCAGCTGACGAGTCCCAAATAGGACGAAACCGAGAATACCAGCATCGTCTTGATGCCCTTGGAAGTCTCGGCGC
modifications: expressed or natural sequence
B12: RA056 (nucleic acid)
DNA: GCGCGTCCTGGATTCGCGGAAACGCGTACATCCAGCTGACGAGTCCCGAGAATACCAGCATCGTCTTGATGCCCTTGGAAGTCTCAAATAGGACGAAACGCGC
modifications: expressed or natural sequence
B13: RA474 (nucleic acid)
DNA: GCGCGTCCTGGATTCGCGGAAACGCGTACATCCAGCTGACGAGTCCCAAATAGGACGAAACGCGCGGAATACCAGCATCGTCTTGATGCCCTTGGAAGTCCGC
modifications: expressed or natural sequence
B14: RA047 (nucleic acid)
DNA: GCGCGTCCTGGATTCGCGGAAACGCGTACATCCAGCTGACGAGTCCCAGGAATACCAGCATCGTCTTGATGCCCTTGGAAGTCCAATAGGACGAAACGCGC
modifications: expressed or natural sequence
B15: RA470 (nucleic acid)
DNA: GCGCGTCCTGGATTCGCGGAAACCGAGAATACCAGCATCGTCTTGATGCCCTTGGAAGTCTCGGCGTACATCCAGCTGACGAGTCCCAAATAGGACGAAACGCGC
modifications: expressed or natural sequence
B16: RA469 (nucleic acid)
DNA: GCGAGAATACCAGCATCGTCTTGATGCCCTTGGAAGTCTCGCGCGTCCTGGATTCGCGGAAACGCGTACATCCAGCTGACGAGTCCCAAATAGGACGAAACGCGC
modifications: expressed or natural sequence
B17: RA055 (nucleic acid)
DNA: GCGCGTCCTGGATTCGCGGCGAGAATACCAGCATCGTCTTGATGCCCTTGGAAGTCTCGAAACGCGTACATCCAGCTGACGAGTCCCAAATAGGACGAAACGCGC
modifications: expressed or natural sequence
B18: RA050 (nucleic acid)
DNA: GCGCGTCCTGGATTCGCGGAAACGCGTACATCCAGCTGACGAGAATACCAGCATCGTCTTGATGCCCTTGGAAGTCTCGCGAGTCCCAAATAGGACGAAACGCGC
modifications: expressed or natural sequence
B19: RA052 (nucleic acid)
DNA: GCGCGTCCTGGATTCGCGGAAACGCGTACATCCAGCTGACGAGAGTGATACCAGCATCGTCTTGATGCCCTTGGCAGCACTTCCCAAATAGGACGAAACGCGC
modifications: expressed or natural sequence
B20: RA046 (nucleic acid)
DNA: GCGCGTCCTGGATTCGCGGAAACGCGTACATCCAGCTGACGAGTCCGGAATACCAGCATCGTCTTGATGCCCTTGGAAGTCCGCCAAATAGGACGAAACGCGC
modifications: expressed or natural sequence
B21: RA473 (nucleic acid)
DNA: GCGCGTCCTGGATTCGCGGAAACGCGTACATCCAGCTGACGAGTCCCAAATAGTGATACCAGCATCGTCTTGATGCCCTTGGCAGCACTAGGACGAAACGCGC
modifications: expressed or natural sequence

Tested on: Renilla luciferase RNA
Experiment: Barcoded aptazyme variant library screen: un-cleaved Renilla luciferase RNA by barcode read counts, HEK293-T cells
Assay type: cell-based
Details: triplicate
Outline: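 Aptazyme variants (seven theophylline aptamers inserted after each T3H48 ribozyme nucleotide, 9-nt barcoded) cloned into the 3′ UTR of Renilla luciferase in psiCHECK-2; cells cultured ± theophylline, in triplicate. RNA and DNA barcodes amplified and sequenced; normalized read counts gave un-cleaved RNA fraction and ON/OFF fold-change.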

[1] = un-cleaved Renilla luciferase RNA by barcode read counts, with 1 mM theophylline (ON) over without theophylline (OFF), HEK293-T cells
[2] = un-cleaved Renilla luciferase RNA, HEK293-T cells cultured with 1 mM theophylline (ON) over without theophylline (OFF), barcode read counts

| Molecule | Fold change in RNA expression between the ON state and the OFF state [1] | Fold change in RNA expression between the ON state and the OFF state [2] |
| --- | --- | --- |
| B1 | 0.3 | – |
| B2 | 0.3 | – |
| B3 | 0.4 | – |
| B4 | – | 2.0 fold |
| B5 | – | 2.0 fold |
| B6 | – | 5.3 fold |
| B7 | 0.2 | – |
| B8 | 0.4 | – |
| B9 | – | 2.0 fold |
| B10 | – | 2.0 fold |
| B11 | – | 2.0 fold |
| B12 | – | 2.0 fold |
| B13 | 0.3 | – |
| B14 | – | 2.0 fold |
| B15 | 0.4 | – |
| B16 | 0.4 | – |
| B17 | – | 2.0 fold |
| B18 | – | 2.0 fold |
| B19 | – | 2.0 fold |
| B20 | – | 2.0 fold |
| B21 | 0.3 | – |

— patent US20260167959A1, “APTAZYME-BASED REGULATABLE GENE EXPRESSION SYSTEMS” (REJUVENATE BIO INC, priority 2022, published 2026)
